Results on one sequence are retold here after publication PMC10293810.

This data set deals with T1, TREX1 catalytic core (murine) (UniProt Q91XB0).
T1 sequence: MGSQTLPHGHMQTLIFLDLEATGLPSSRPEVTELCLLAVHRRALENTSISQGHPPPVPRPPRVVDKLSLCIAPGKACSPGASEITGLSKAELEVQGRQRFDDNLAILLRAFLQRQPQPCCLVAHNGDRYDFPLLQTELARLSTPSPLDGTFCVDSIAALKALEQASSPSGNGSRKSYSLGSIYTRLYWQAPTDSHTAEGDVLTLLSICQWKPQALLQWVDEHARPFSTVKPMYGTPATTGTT
Put plainly: fluorescence polarization. To be noted: FP with 5 nM ligand at 25 C (some FPCD at 4 C); buffer for MS2-CP (BB6): 100 mM Tris pH 7.5, 10 mM MgCl2, 80 mM KCl, 0.1 mg/mL BSA; other buffers not in …. On the technique in general: Fluorescence polarisation rises when a labelled molecule tumbles more slowly, as on binding a larger partner.

One may read the Kd as a measure of binding affinity in units of concentration. A high value points to lower affinity. With “GAAGTGCCCGTGACGCGCGCGACGCCAGCCGACGAAGGCGGGACCCAGAGCGCGCGCCGT (double strand) [ds-[F]d(N)60]”, the Kd is 30 nM.
